14 molecules from US20150087577A1 (POLYPHOR, published 2015) can be followed below.

Bridges are numbered along the chain shown (N, C = ends). [ ]: non-standard residue; d: D form. Phe(4-F) = N[C@@H](Cc1ccc(F)cc1)C(=O)O; 2Nal = N[C@@H](Cc1ccc2ccccc2c1)C(=O)O; Cit = NC(=O)NCCC[C@H](N)C(=O)O

B1: Example 96 (peptide)
peptide: cyclo(YRSCRG[dP]RR[2Nal]CYQK[dP]P)
modifications: disulfide 4-11
SMILES: N=C(N)NCCC[C@@H]1NC(=O)[C@@H]2CSSC[C@H](NC(=O)[C@H](Cc3ccc4ccccc4c3)NC(=O)[C@H](CCCNC(=N)N)NC(=O)[C@H](CCCNC(=N)N)NC(=O)[C@H]3CCCN3C(=O)CNC1=O)C(=O)N[C@@H](Cc1ccc(O)cc1)C(=O)N[C@@H](CCC(N)=O)C(=O)N[C@@H](CCCCN)C(=O)N1CCC[C@@H]1C(=O)N1CCC[C@H]1C(=O)N[C@@H](Cc1ccc(O)cc1)C(=O)N[C@@H](CCCNC(=N)N)C(=O)N[C@@H](CO)C(=O)N2
B2: Example 90 (peptide)
peptide: cyclo(VR[Cit]CRG[dP]RR[2Nal]CYQK[dP]P)
modifications: disulfide 4-11
SMILES: CC(C)[C@@H]1NC(=O)[C@@H]2CCCN2C(=O)[C@H]2CCCN2C(=O)[C@H](CCCCN)NC(=O)[C@H](CCC(N)=O)NC(=O)[C@H](Cc2ccc(O)cc2)NC(=O)[C@@H]2CSSC[C@H](NC(=O)[C@H](CCCNC(N)=O)NC(=O)[C@H](CCCNC(=N)N)NC1=O)C(=O)N[C@@H](CCCNC(=N)N)C(=O)NCC(=O)N1CCC[C@@H]1C(=O)N[C@@H](CCCNC(=N)N)C(=O)N[C@@H](CCCNC(=N)N)C(=O)N[C@@H](Cc1ccc3ccccc3c1)C(=O)N2
B3: Example 98 (peptide)
peptide: cyclo(YRVCRG[dP]RR[2Nal]CYQK[dP]P)
modifications: disulfide 4-11
SMILES: CC(C)[C@@H]1NC(=O)[C@H](CCCNC(=N)N)NC(=O)[C@H](Cc2ccc(O)cc2)NC(=O)[C@@H]2CCCN2C(=O)[C@H]2CCCN2C(=O)[C@H](CCCCN)NC(=O)[C@H](CCC(N)=O)NC(=O)[C@H](Cc2ccc(O)cc2)NC(=O)[C@@H]2CSSC[C@H](NC1=O)C(=O)N[C@@H](CCCNC(=N)N)C(=O)NCC(=O)N1CCC[C@@H]1C(=O)N[C@@H](CCCNC(=N)N)C(=O)N[C@@H](CCCNC(=N)N)C(=O)N[C@@H](Cc1ccc3ccccc3c1)C(=O)N2
B4: Example 20 (peptide)
peptide: cyclo(YR[Cit]FR[Cit]PRR[2Nal]VY[Cit]K[dP]P)
SMILES: CC(C)[C@@H]1NC(=O)[C@H](Cc2ccc3ccccc3c2)NC(=O)[C@H](CCCNC(=N)N)NC(=O)[C@H](CCCNC(=N)N)NC(=O)[C@@H]2CCCN2C(=O)[C@H](CCCNC(N)=O)NC(=O)[C@H](CCCNC(=N)N)NC(=O)[C@H](Cc2ccccc2)NC(=O)[C@H](CCCNC(N)=O)NC(=O)[C@H](CCCNC(=N)N)NC(=O)[C@H](Cc2ccc(O)cc2)NC(=O)[C@@H]2CCCN2C(=O)[C@H]2CCCN2C(=O)[C@H](CCCCN)NC(=O)[C@H](CCCNC(N)=O)NC(=O)[C@H](Cc2ccc(O)cc2)NC1=O
B5: Example 101 (peptide)
peptide: cyclo(YR[Cit]CSG[dP]RR[2Nal]CYQK[dP]P)
modifications: disulfide 4-11
SMILES: N=C(N)NCCC[C@@H]1NC(=O)[C@H](CCCNC(=N)N)NC(=O)[C@H]2CCCN2C(=O)CNC(=O)[C@H](CO)NC(=O)[C@@H]2CSSC[C@H](NC(=O)[C@H](Cc3ccc4ccccc4c3)NC1=O)C(=O)N[C@@H](Cc1ccc(O)cc1)C(=O)N[C@@H](CCC(N)=O)C(=O)N[C@@H](CCCCN)C(=O)N1CCC[C@@H]1C(=O)N1CCC[C@H]1C(=O)N[C@@H](Cc1ccc(O)cc1)C(=O)N[C@@H](CCCNC(=N)N)C(=O)N[C@@H](CCCNC(N)=O)C(=O)N2
B6: Example 92 (peptide)
peptide: cyclo(YRNCRG[dP]RR[2Nal]CYQK[dP]P)
modifications: disulfide 4-11
SMILES: N=C(N)NCCC[C@@H]1NC(=O)[C@@H]2CSSC[C@H](NC(=O)[C@H](Cc3ccc4ccccc4c3)NC(=O)[C@H](CCCNC(=N)N)NC(=O)[C@H](CCCNC(=N)N)NC(=O)[C@H]3CCCN3C(=O)CNC1=O)C(=O)N[C@@H](Cc1ccc(O)cc1)C(=O)N[C@@H](CCC(N)=O)C(=O)N[C@@H](CCCCN)C(=O)N1CCC[C@@H]1C(=O)N1CCC[C@H]1C(=O)N[C@@H](Cc1ccc(O)cc1)C(=O)N[C@@H](CCCNC(=N)N)C(=O)N[C@@H](CC(N)=O)C(=O)N2
B7: Example 100 (peptide)
peptide: cyclo(YRMCRG[dP]RR[2Nal]CYQK[dP]P)
modifications: disulfide 4-11
SMILES: CSCC[C@@H]1NC(=O)[C@H](CCCNC(=N)N)NC(=O)[C@H](Cc2ccc(O)cc2)NC(=O)[C@@H]2CCCN2C(=O)[C@H]2CCCN2C(=O)[C@H](CCCCN)NC(=O)[C@H](CCC(N)=O)NC(=O)[C@H](Cc2ccc(O)cc2)NC(=O)[C@@H]2CSSC[C@H](NC1=O)C(=O)N[C@@H](CCCNC(=N)N)C(=O)NCC(=O)N1CCC[C@@H]1C(=O)N[C@@H](CCCNC(=N)N)C(=O)N[C@@H](CCCNC(=N)N)C(=O)N[C@@H](Cc1ccc3ccccc3c1)C(=O)N2
B8: Example 97 (peptide)
peptide: cyclo(YRLCRG[dP]RR[2Nal]CYQK[dP]P)
modifications: disulfide 4-11
SMILES: CC(C)C[C@@H]1NC(=O)[C@H](CCCNC(=N)N)NC(=O)[C@H](Cc2ccc(O)cc2)NC(=O)[C@@H]2CCCN2C(=O)[C@H]2CCCN2C(=O)[C@H](CCCCN)NC(=O)[C@H](CCC(N)=O)NC(=O)[C@H](Cc2ccc(O)cc2)NC(=O)[C@@H]2CSSC[C@H](NC1=O)C(=O)N[C@@H](CCCNC(=N)N)C(=O)NCC(=O)N1CCC[C@@H]1C(=O)N[C@@H](CCCNC(=N)N)C(=O)N[C@@H](CCCNC(=N)N)C(=O)N[C@@H](Cc1ccc3ccccc3c1)C(=O)N2
B9: Example 94 (peptide)
peptide: cyclo(YRKCRG[dP]RR[2Nal]CYQK[dP]P)
modifications: disulfide 4-11
SMILES: N=C(N)NCCC[C@@H]1NC(=O)[C@@H]2CSSC[C@H](NC(=O)[C@H](Cc3ccc4ccccc4c3)NC(=O)[C@H](CCCNC(=N)N)NC(=O)[C@H](CCCNC(=N)N)NC(=O)[C@H]3CCCN3C(=O)CNC1=O)C(=O)N[C@@H](Cc1ccc(O)cc1)C(=O)N[C@@H](CCC(N)=O)C(=O)N[C@@H](CCCCN)C(=O)N1CCC[C@@H]1C(=O)N1CCC[C@H]1C(=O)N[C@@H](Cc1ccc(O)cc1)C(=O)N[C@@H](CCCNC(=N)N)C(=O)N[C@@H](CCCCN)C(=O)N2
B10: Example 95 (peptide)
peptide: cyclo(YRACRG[dP]RR[2Nal]CYQK[dP]P)
modifications: disulfide 4-11
SMILES: C[C@@H]1NC(=O)[C@H](CCCNC(=N)N)NC(=O)[C@H](Cc2ccc(O)cc2)NC(=O)[C@@H]2CCCN2C(=O)[C@H]2CCCN2C(=O)[C@H](CCCCN)NC(=O)[C@H](CCC(N)=O)NC(=O)[C@H](Cc2ccc(O)cc2)NC(=O)[C@@H]2CSSC[C@H](NC1=O)C(=O)N[C@@H](CCCNC(=N)N)C(=O)NCC(=O)N1CCC[C@@H]1C(=O)N[C@@H](CCCNC(=N)N)C(=O)N[C@@H](CCCNC(=N)N)C(=O)N[C@@H](Cc1ccc3ccccc3c1)C(=O)N2
B11: Example 99 (peptide)
peptide: cyclo(YR[Phe(4-F)]CRG[dP]RR[2Nal]CYQK[dP]P)
modifications: disulfide 4-11
SMILES: N=C(N)NCCC[C@@H]1NC(=O)[C@@H]2CSSC[C@H](NC(=O)[C@H](Cc3ccc4ccccc4c3)NC(=O)[C@H](CCCNC(=N)N)NC(=O)[C@H](CCCNC(=N)N)NC(=O)[C@H]3CCCN3C(=O)CNC1=O)C(=O)N[C@@H](Cc1ccc(O)cc1)C(=O)N[C@@H](CCC(N)=O)C(=O)N[C@@H](CCCCN)C(=O)N1CCC[C@@H]1C(=O)N1CCC[C@H]1C(=O)N[C@@H](Cc1ccc(O)cc1)C(=O)N[C@@H](CCCNC(=N)N)C(=O)N[C@@H](Cc1ccc(F)cc1)C(=O)N2
B12: Example 102 (peptide)
peptide: cyclo(YRSCRG[dP]RRWCY[Cit]D[dP]P)
modifications: disulfide 4-11
SMILES: N=C(N)NCCC[C@@H]1NC(=O)[C@@H]2CSSC[C@H](NC(=O)[C@H](Cc3c[nH]c4ccccc34)NC(=O)[C@H](CCCNC(=N)N)NC(=O)[C@H](CCCNC(=N)N)NC(=O)[C@H]3CCCN3C(=O)CNC1=O)C(=O)N[C@@H](Cc1ccc(O)cc1)C(=O)N[C@@H](CCCNC(N)=O)C(=O)N[C@@H](CC(=O)O)C(=O)N1CCC[C@@H]1C(=O)N1CCC[C@H]1C(=O)N[C@@H](Cc1ccc(O)cc1)C(=O)N[C@@H](CCCNC(=N)N)C(=O)N[C@@H](CO)C(=O)N2
B13: Example 93 (peptide)
peptide: cyclo(YRDCRG[dP]RR[2Nal]CYQK[dP]P)
modifications: disulfide 4-11
SMILES: N=C(N)NCCC[C@@H]1NC(=O)[C@@H]2CSSC[C@H](NC(=O)[C@H](Cc3ccc4ccccc4c3)NC(=O)[C@H](CCCNC(=N)N)NC(=O)[C@H](CCCNC(=N)N)NC(=O)[C@H]3CCCN3C(=O)CNC1=O)C(=O)N[C@@H](Cc1ccc(O)cc1)C(=O)N[C@@H](CCC(N)=O)C(=O)N[C@@H](CCCCN)C(=O)N1CCC[C@@H]1C(=O)N1CCC[C@H]1C(=O)N[C@@H](Cc1ccc(O)cc1)C(=O)N[C@@H](CCCNC(=N)N)C(=O)N[C@@H](CC(=O)O)C(=O)N2
B14: Example 91 (peptide)
peptide: cyclo(MR[Cit]CRG[dP]RR[2Nal]CYQK[dP]P)
modifications: disulfide 4-11
SMILES: CSCC[C@@H]1NC(=O)[C@@H]2CCCN2C(=O)[C@H]2CCCN2C(=O)[C@H](CCCCN)NC(=O)[C@H](CCC(N)=O)NC(=O)[C@H](Cc2ccc(O)cc2)NC(=O)[C@@H]2CSSC[C@H](NC(=O)[C@H](CCCNC(N)=O)NC(=O)[C@H](CCCNC(=N)N)NC1=O)C(=O)N[C@@H](CCCNC(=N)N)C(=O)NCC(=O)N1CCC[C@@H]1C(=O)N[C@@H](CCCNC(=N)N)C(=O)N[C@@H](CCCNC(=N)N)C(=O)N[C@@H](Cc1ccc3ccccc3c1)C(=O)N2

Sequence of human CXCR4 (P61073 whole entry): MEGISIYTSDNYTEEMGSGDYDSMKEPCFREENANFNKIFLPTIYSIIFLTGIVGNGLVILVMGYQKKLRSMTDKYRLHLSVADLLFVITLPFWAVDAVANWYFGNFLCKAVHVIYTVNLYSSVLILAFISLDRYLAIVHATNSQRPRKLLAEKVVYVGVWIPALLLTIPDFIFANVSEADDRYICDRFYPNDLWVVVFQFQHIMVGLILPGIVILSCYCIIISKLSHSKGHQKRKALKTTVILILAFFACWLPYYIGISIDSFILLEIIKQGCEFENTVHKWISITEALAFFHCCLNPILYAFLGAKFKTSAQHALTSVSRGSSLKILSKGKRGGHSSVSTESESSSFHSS

This assay addresses human CXCR4 (human, UniProt P61073 1-352). As to the kind of experiment: cell-based or functional assay.
Turning to B1, the “IC50 (nM) Ca2+ assay (method 2)” value turned out to be 3 nM. Same read-out and setting: for B2 the value was 19.5 nM. Still for that read-out and setting: with B3 the figure was 3.9 nM. For B4, the “IC50 (nM) Ca2+ assay (method 1)” value is 3730 nM. Turning to B5, the “IC50 (nM) Ca2+ assay (method 2)” value came to 1.28 nM. The same measure, in the same setting: for B6 the value was 1.1 nM; for B7, 7 nM; for B8, 4.3 nM. On to B9, for which the “IC50 (nM) Ca2+ assay (method 2)” value came to 2.5 nM.

Consider B10, for which the “IC50 (nM) Ca2+ assay (method 2)” value is 2.9 nM. Still for that read-out and setting: with B11 the figure was 4.2 nM; with B12, 8 nM; with B13, 4.3 nM. The same measure, in the same setting: with B14 the figure was 2.1 nM.
